Where two headings read alike, the source gives them in different places.
T1: recombinant mouse soluble gpNMB (recombinant mouse gpNMB-FLAG-His) (mouse, UniProt Q99P91 23-502)
T1 sequence: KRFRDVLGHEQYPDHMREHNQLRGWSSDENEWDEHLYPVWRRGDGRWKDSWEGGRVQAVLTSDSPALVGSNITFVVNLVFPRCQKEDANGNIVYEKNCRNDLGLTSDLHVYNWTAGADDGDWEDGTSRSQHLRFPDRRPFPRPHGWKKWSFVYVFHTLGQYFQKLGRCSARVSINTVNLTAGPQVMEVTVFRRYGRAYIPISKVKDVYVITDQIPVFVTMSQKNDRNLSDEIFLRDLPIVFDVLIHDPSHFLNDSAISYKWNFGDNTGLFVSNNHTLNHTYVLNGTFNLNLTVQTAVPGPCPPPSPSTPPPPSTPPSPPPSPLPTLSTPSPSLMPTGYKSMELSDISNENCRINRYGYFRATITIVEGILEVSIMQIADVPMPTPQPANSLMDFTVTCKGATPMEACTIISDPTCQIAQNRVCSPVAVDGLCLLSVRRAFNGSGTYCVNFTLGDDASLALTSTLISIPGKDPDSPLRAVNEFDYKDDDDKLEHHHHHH

T2: recombinant human soluble gpNMB (recombinant human gpNMB-FLAG-His) (human, UniProt Q14956 23-498)
T2 sequence: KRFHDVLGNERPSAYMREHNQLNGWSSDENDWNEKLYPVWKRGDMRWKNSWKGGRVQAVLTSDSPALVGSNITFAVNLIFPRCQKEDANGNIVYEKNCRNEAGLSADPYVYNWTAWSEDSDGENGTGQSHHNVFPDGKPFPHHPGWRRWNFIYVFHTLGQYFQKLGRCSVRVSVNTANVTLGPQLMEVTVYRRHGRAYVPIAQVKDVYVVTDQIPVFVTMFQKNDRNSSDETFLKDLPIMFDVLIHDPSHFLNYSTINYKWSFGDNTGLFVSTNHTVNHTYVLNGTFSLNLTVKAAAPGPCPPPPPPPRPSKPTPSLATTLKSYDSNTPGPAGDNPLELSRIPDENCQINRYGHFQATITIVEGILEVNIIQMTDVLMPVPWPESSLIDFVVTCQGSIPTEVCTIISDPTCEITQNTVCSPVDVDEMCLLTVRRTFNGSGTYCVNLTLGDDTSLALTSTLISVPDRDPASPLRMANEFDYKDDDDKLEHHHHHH

T3: human gpNMB (Human Osteoactivin, His-tag, AcroBioSystems) (human, UniProt Q14956-2 23-486, limits assumed)
T3 sequence (looked up): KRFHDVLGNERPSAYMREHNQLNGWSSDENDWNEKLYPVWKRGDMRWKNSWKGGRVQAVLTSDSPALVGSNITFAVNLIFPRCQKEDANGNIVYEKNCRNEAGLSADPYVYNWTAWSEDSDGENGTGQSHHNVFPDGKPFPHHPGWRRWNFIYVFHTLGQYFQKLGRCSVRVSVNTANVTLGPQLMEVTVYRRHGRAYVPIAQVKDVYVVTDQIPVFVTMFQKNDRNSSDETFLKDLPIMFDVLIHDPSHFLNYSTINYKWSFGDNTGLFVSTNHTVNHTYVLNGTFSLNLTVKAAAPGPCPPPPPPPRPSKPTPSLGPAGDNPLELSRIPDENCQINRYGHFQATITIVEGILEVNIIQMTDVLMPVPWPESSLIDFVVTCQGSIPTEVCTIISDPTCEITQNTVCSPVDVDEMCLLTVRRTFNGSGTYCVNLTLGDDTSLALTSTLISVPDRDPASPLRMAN


Experiments:
[1] = biological target: T1, recombinant mouse soluble gpNMB …; test: SPR single-cycle kinetics, antibody over captured gpNMB-FLAG-His, 36C, mean of 2
[2] = biological target: T2, recombinant human soluble gpNMB …; test: as above
[3] = biological target: T3, human gpNMB (Human Osteoactivin, …); test: SPR Biacore 8K, antibody captured on protein A, gpNMB as analyte
[4] = biological target: T2, recombinant human soluble gpNMB …; test: antigen ELISA
[5] = biological target: T2, recombinant human soluble gpNMB …; test: antigen ELISA; remark: listed apart in the source
[6] = biological target: T2, recombinant human soluble gpNMB …; test: antigen ELISA, vs hGPN18-2_H2L3
[7] = biological target: T2, recombinant human soluble gpNMB …; test: antigen ELISA; remark: listed apart in the source
[8] = biological target: T2, recombinant human soluble gpNMB …; test: antigen ELISA, vs hGPN18-2_H2L3; remark: listed apart in the source
[9] = biological target: T2, recombinant human soluble gpNMB …; test: antigen ELISA, vs hGPN18-2_H2L3; remark: listed apart in the source
[10] = biological target: T2, recombinant human soluble gpNMB …; test: SPR, antibody 100 nM over captured gpNMB-FLAG-His, 36C
[11] = biological target: T2, recombinant human soluble gpNMB …; test: antigen ELISA; remark: listed apart in the source
[12] = biological target: T2, recombinant human soluble gpNMB …; test: SPR, antibody over captured gpNMB-FLAG-His, 1:1 model
[13] = biological target: T2, recombinant human soluble gpNMB …; test: antigen ELISA; remark: listed apart in the source
[14] = biological target: T2, recombinant human soluble gpNMB …; test: antigen ELISA; remark: listed apart in the source
[15] = biological target: T2, recombinant human soluble gpNMB …; test: antigen ELISA, vs hGPN06-1_H1L1
[16] = biological target: T2, recombinant human soluble gpNMB …; test: antigen ELISA, vs hGPN06-1_H1L1; remark: listed apart in the source
[17] = biological target: T2, recombinant human soluble gpNMB …; test: antigen ELISA; remark: listed apart in the source
[18] = biological target: T2, recombinant human soluble gpNMB …; test: antigen ELISA, vs hGPN06-1_H1L1; remark: listed apart in the source
[19] = biological target: T2, recombinant human soluble gpNMB …; test: antigen ELISA; remark: listed apart in the source

Kd [1] [nM]	koff [1] [s⁻¹]	kon [1] [M⁻¹ s⁻¹]	Kd [2] [nM]	koff [2] [s⁻¹]	kon [2] [M⁻¹ s⁻¹]	Kd [3] [nM]	koff [3] [s⁻¹]	kon [3] [M⁻¹ s⁻¹]	Binder	also measured
5.31	0.00075	142000	3.08	0.000727	237000	237	0.002	8440	hGPN18-5_H0L0 (antibody, V domains shown, chimeric antibody with mouse GPN18-5 variable regions (VH0, VL0); also called hGPN18-5_VH0+VL0; HGPN18-5_VH0+VL0) VH: QVQLQQSGAELAKPGTSVKMSCKASGYTFTTYWMNWVKQRPGQDLEWIGAINPSNDYTEYNQKFKDKAILTADKSSNTAYMQLSSLTSEDSAVYYCGRSYSPDYWGQGTTLTVSS VL: DIVMTQSQKFMSTSVGDRVSVTCKASQNVDNHVAWHQQKPGQSPKALIYSASYRYSGVPDRFTGSGSGTDFTLTIRDVQSEDLADYFCQQYKSYPFTFGSGTELEIK	
									hGPN18-2_H2L3 (antibody, V domains shown, humanized; also called humanized anti-gpNMB antibody H2L3) VH: QVQLVQSGPGLVQPTQTLTLTCSFSGFSLSTSVMGVGWIRQPSGKGLEWLADIWWDDDKDYNPSLKSRLTISKDTSKNQVVLTMTNMDTVDTATYYCARTYYSNYEYYGMDYWGQGTLVTVSS VL: DIVMTQSPDSLAVSLGERATINCRSSQTIILSNGNTYLEWYQQKPGQPPKLLIYKVSNRFSGVPDRFSGSGSGTDFTLTISSLQAEDVAVYYCFQGSHVPFTFGSGTKLEIKR	EC50 [4]: 1.84 nM; EC50 [5]: 4.39 nM; Relative binding activity [6]: 1; EC50 [7]: 4.39 nM; Relative binding activity [8]: 1; Relative binding activity [9]: 1; Kd [10]: 7.78 pM; koff [10]: 7.49e-07 s⁻¹; kon [10]: 96200 M⁻¹ s⁻¹; EC50 [11]: 4.39 nM
									hGPN06-1_H0L0 (antibody, V domains shown, human chimeric antibody: mouse GPN06-1 variable regions (VH0, VL0); also called human chimeric antibody of GPN06-1) VH: QVQLQQPGAEIVRPGASVKLSCKASGYTFTDNWMGWVKQRPGQGLEWIGAIDPSDSFTNYNQNFKGKATLTVDTSSSTAYMQLSSLTSEDSAVYFCTRSGYYGSPKLGGDYWGQGTTLTVSS VL: QIVLTQSPAIMSASLGEEITLTCSASSSISYMHWYQQKSGTSPKLLIYSTSNLASGVPSRFSGSGSGTFYSLTISSVEAEDAADYYCHQWNSYPCTFGGGTKLEIK	Kd [12]: 0.265 nM; koff [12]: 0.000209 s⁻¹; kon [12]: 789000 M⁻¹ s⁻¹; EC50 [13]: 0.383 nM
									hGPN06-1_H1L1 (antibody, V domains shown, humanized; also called humanized anti-gpNMB antibody H1L1) VH: QVQLVQSGAEVKKPGASVKVSCKASGYTFTDNWMGWVKQRPGQGLEWIGAIDPSDSFTNYNQNFKGRVTMTVDTSISTAYMELSRLRSDDSAVYFCTRSGYYGSPKLGGDYWGQGTLVTVSS VL: EIVLTQSPSSLSASVGDRVTITCSASSSISYMHWYQQKSGTAPKLLIYSTSNLASGVPSRFSGSGSGTDFTFTISSLQPEDAATYYCHQWNSYPCTFGGGTKLEIK	Kd [12]: 0.62 nM; koff [12]: 0.000567 s⁻¹; kon [12]: 916000 M⁻¹ s⁻¹; EC50 [14]: 1.98 nM; EC50 [13]: 0.575 nM; Relative binding activity [15]: 1; Relative binding activity [16]: 1; EC50 [17]: 1.98 nM; Relative binding activity [18]: 1; EC50 [19]: 1.98 nM
									hGPN18-2_H0L0 (antibody, V domains shown, human chimeric antibody: mouse GPN18-2 variable regions; also called human chimeric antibody of GPN18-2) VH: QVTLKESGPGILQPSQTLSLTCSFSGFSLSTSVMGVGWIRQPSGKGLEWLADIWWDDDKDYNPSLKSRLTISKDTSKNQVFLKIASVDTADTATYYCARTYYSNYEYYGMDYWGQGTSVTVSS VL: DVLMTQTPLSLPVSLGDQASISCRSSQTIILSNGNTYLEWYLQKPGQSPKLLIYKVSNRFSGVPDRFSGSGSGTDFTLKISRVEAEDLGVYYCFQGSHVPFTFGSGTKLEIK	EC50 [4]: 1.21 nM; Kd [10]: 3.46 pM; koff [10]: 4.71e-07 s⁻¹; kon [10]: 141000 M⁻¹ s⁻¹
17.8	0.000862	52900	11.3	0.00138	142000	711	0.00484	6810	hGPN18-5_H3L1 (antibody, V domains shown, humanized; also called hGPN18-5 VH3+VL1) VH: QVQLVQSGAEVKKPGASVKVSCKASGYTFTTYWMNWVRQAPGQGLEWIGAINPSNDYTEYNQKFKDRAIMTADKSTSTVYMELSSLRSEDTAVYYCGRSYSPDYWGQGTTVTVSS VL: DIQMTQSPSSLSASVGDRVTITCKASQNVDNHVAWFQQKPGKAPKALIYSASYRYSGVPSRFSGSGSGTDFTLTISSLQPEDFATYFCQQYKSYPFTFGGGTKLEIK	
21.9	0.00143	73800	16.2	0.00307	308000	651	0.00432	6640	hGPN18-5_H1L1 (antibody, V domains shown, humanized; also called hGPN18-5_VH1+VL1) VH: QVQLVQSGAEVKKPGASVKVSCKASGYTFTTYWMNWVRQAPGQGLEWIGAINPSNDYTEYNQKFKDRVTMTADTSTSTVYMELSSLRSEDTAVYYCGRSYSPDYWGQGTTVTVSS VL: DIQMTQSPSSLSASVGDRVTITCKASQNVDNHVAWFQQKPGKAPKALIYSASYRYSGVPSRFSGSGSGTDFTLTISSLQPEDFATYFCQQYKSYPFTFGGGTKLEIK	
6.39	0.000711	111000	6.98	0.00121	176000	352	0.00201	5720	hGPN18-5_H3L3 (antibody, V domains shown, humanized; also called hGPN18-5_VH3+VL3) VH: QVQLVQSGAEVKKPGASVKVSCKASGYTFTTYWMNWVRQAPGQGLEWIGAINPSNDYTEYNQKFKDRAIMTADKSTSTVYMELSSLRSEDTAVYYCGRSYSPDYWGQGTTVTVSS VL: DIQMTQSPSSLSASVGDRVTITCKASQNVDNHVAWHQQKPGKAPKALIYSASYRYSGVPDRFTGSGSGTDFTLTISSLQPEDFADYFCQQYKSYPFTFGGGTKLEIK	

— patent EP4772193A1 (Teijin Pharma Limited, dated 2026)
